# In patent US20040180417A1, “Secretase/sheddase with asp-ase activity on the beta-site app-cleaving enzyme (bace, asp2, memepsin2)” (priority 2000, published 2004):
# B1: PC7 (protein)
# chain: SIHFNDPKYPQQWHLNNRRSPGRDINVTGVWERNVTGRGVTVVVVDDGVEHTVQDIAPNYSPEGSYDLNSNDPDPMPHPDEENGNHHGTRCAGEIAAVPNNSFCAVGVAYGSRIAGIRVLDGPLTDSMEAVAFNKHYQINDIYSCSWGPDDDGKTVDGPHQLGKAALQHGVMAGRQGFGSIFVVASGNGGQHNDNCNYDGYANSIYTVTIGAVDEEGRMPFYAEECASMLAVTFSGGDKMLRSIVTTDWDLQKGTGCTEGHTGTSAAAPLAAGMIALMLQVRPCLTWRDVQHIIVFTATQYEDHRADWLTNEAGFSHSHQHGFGLLNAWRLVNAAKIWTSVPYLASYVSPMLKENKAVPRSPHSLEVLWNVSRTDLEMSGLKTLEHVAVTVSITHPRRGSLELKLFCPSGMMSLIGAPRSMDSDPNGFNDWTFSTVRCWGERARGVYRLVIRDVGDEPLQVGILQQWQLTLYGSTWSPVDIKDRQSLLESAMSGKYLHDDFTLPCPPGLKIPEEDGYSITPNTLKT
# B2: α2M: wild type α2-macroglobulin (protein, UniProt P01023 24-1474, looked up)
# Alpha-2-macroglobulin: SVSGKPQYMVLVPSLLHTETTEKGCVLLSYLNETVTVSASLESVRGNRSLFTDLEAENDVLHCVAFAVPKSSSNEEVMFLTVQVKGPTQEFKKRTTVMVKNEDSLVFVQTDKSIYKPGQTVKFRVVSMDENFHPLNELIPLVYIQDPKGNRIAQWQSFQLEGGLKQFSFPLSSEPFQGSYKVVVQKKSGGRTEHPFTVEEFVLPKFEVQVTVPKIITILEEEMNVSVCGLYTYGKPVPGHVTVSICRKYSDASDCHGEDSQAFCEKFSGQLNSHGCFYQQVKTKVFQLKRKEYEMKLHTEAQIQEEGTVVELTGRQSSEITRTITKLSFVKVDSHFRQGIPFFGQVRLVDGKGVPIPNKVIFIRGNEANYYSNATTDEHGLVQFSINTTNVMGTSLTVRVNYKDRSPCYGYQWVSEEHEEAHHTAYLVFSPSKSFVHLEPMSHELPCGHTQTVQAHYILNGGTLLGLKKLSFYYLIMAKGGIVRTGTHGLLVKQEDMKGHFSISIPVKSDIAPVARLLIYAVLPTGDVIGDSAKYDVENCLANKVDLSFSPSQSLPASHAHLRVTAAPQSVCALRAVDQSVLLMKPDAELSASSVYNLLPEKDLTGFPGPLNDQDNEDCINRHNVYINGITYTPVSSTNEKDMYSFLEDMGLKAFTNSKIRKPKMCPQLQQYEMHGPEGLRVGFYESDVMGRGHARLVHVEEPHTETVRKYFPETWIWDLVVVNSAGVAEVGVTVPDTITEWKAGAFCLSEDAGLGISSTASLRAFQPFFVELTMPYSVIRGEAFTLKATVLNYLPKCIRVSVQLEASPAFLAVPVEKEQAPHCICANGRQTVSWAVTPKSLGNVNFTVSAEALESQELCGTEVPSVPEHGRKDTVIKPLLVEPEGLEKETTFNSLLCPSGGEVSEELSLKLPPNVVEESARASVSVLGDILGSAMQNTQNLLQMPYGCGEQNMVLFAPNIYVLDYLNETQQLTPEIKSKAIGYLNTGYQRQLNYKHYDGSYSTFGERYGRNQGNTWLTAFVLKTFAQARAYIFIDEAHITQALIWLSQRQKDNGCFRSSGSLLNNAIKGGVEDEVTLSAYITIALLEIPLTVTHPVVRNALFCLESAWKTAQEGDHGSHVYTKALLAYAFALAGNQDKRKEVLKSLNEEAVKKDNSVHWERPQKPKAPVGHFYEPQAPSAEVEMTSYVLLAYLTAQPAPTSEDLTSATNIVKWITKQQNAQGGFSSTQDTVVALHALSKYGAATFTRTGKAAQVTIQSSGTFSSKFQVDNNNRLLLQQVSLPELPGEYSMKVTGEGCVYLQTSLKYNILPEKEEFPFALGVQTLPQTCDEPKAHTSFQISLSVSYTGSRSASNMAIVDVKMVSGFIPLKPTVKMLERSNHVSRTEVSSNHVLIYLDKVSNQTLSLFFTVLQDVPVRDLKPAIVKVYDYYETDEFAIAEYNAPCSKDLGNA
# Legend:
# [1] = system: [proBACES]FG/V5; assay: In vitro PC-mediated processing of proBACES (Western blot); assay type: biochemical, mouse; conditions: equivalent hydrolytic activities of PCs, 1-4 hours incubation
# [2] = system: proBACE processing by PC-like enzyme; assay: proBACE processing in HK293 cells co-expressing [BACEF]FG/V5 and PC-inhibitors (pulse-chase, immunoprecipitation, SDS-PAGE); assay type: cell-based, human; conditions: co-expression; 20 min [35S]Met pulse, 90 min chase; FG immunoprecipitation
# Description: FIG. 1: HK293 cells were transiently co-transfected with either ([BACEF]FG/V5+BDNF) [control, CTL] (A,C) or ([BACEF]FG/V5+α1-PDX) (B,D) cDNAs. Two days post-transfections the cells were pulse-labeled in the absence or presence of […] BFA for 15 min with [^35S]Met and then chased for 1 or 2h. Cell lysates were immunoprecipitated with either the FG or V5 mAbs and analysed by SDS-PAGE on 8% tricine gels. The migration position of the 53 kDa molecular mass standard and those of proBACE (pBACE) and BACE are emphasized.
# FIG. 2: [A] HK293 cells were transiently co-transfected with cDNAs coding for either ([BACEF]FG/V5+BDNF) [control, CTL], ([BACEF-R45A]FG/V5+BDNF) or ([BACEF-R42A]FG/V5+BDNF) or ([BACEF]FG/V5+either α1-PDX, the prosegments of furin, PC5, PC7, SKI-1, furin-mutated (α2M-F) or wild type (α2M) α2-macroglobulin. The cells were pulse-labeled for 20 min with [^35S]Met and then chased for 90 min. Cell lysates were immunoprecipitated with the FG mAb and analysed by SDS-PAGE on 8% tricine gels. [B] HK293 cells were transiently co-transfected with cDNAs coding for either ([BACEF]FG/V5+BDNF) [CTL], ([BACEF]FG/V5+furin) or ([BACEF]FG/V5+α1-PDX). The cells were then pulse-labeled for 2h with Na2[^35SO4]. Cell lysates were immunoprecipitated with the FG or V5 mAbs and analysed by SDS-PAGE on 8% tricine gels. […]
Molecule,ability to process proBACE into BACE [1],"quantity of the 72 kDa proBACE (pBACEG, Golgi form) [2]"
B1,"barely, if at all, able",
B2,,barely detectable
